Test results as given in patent publication US20190062438A1 (CSL, published 2019).
Numbering of substitutions follows the chain as printed.

T1: human CD131 (human, UniProt P32927 17-897)
T1 sequence: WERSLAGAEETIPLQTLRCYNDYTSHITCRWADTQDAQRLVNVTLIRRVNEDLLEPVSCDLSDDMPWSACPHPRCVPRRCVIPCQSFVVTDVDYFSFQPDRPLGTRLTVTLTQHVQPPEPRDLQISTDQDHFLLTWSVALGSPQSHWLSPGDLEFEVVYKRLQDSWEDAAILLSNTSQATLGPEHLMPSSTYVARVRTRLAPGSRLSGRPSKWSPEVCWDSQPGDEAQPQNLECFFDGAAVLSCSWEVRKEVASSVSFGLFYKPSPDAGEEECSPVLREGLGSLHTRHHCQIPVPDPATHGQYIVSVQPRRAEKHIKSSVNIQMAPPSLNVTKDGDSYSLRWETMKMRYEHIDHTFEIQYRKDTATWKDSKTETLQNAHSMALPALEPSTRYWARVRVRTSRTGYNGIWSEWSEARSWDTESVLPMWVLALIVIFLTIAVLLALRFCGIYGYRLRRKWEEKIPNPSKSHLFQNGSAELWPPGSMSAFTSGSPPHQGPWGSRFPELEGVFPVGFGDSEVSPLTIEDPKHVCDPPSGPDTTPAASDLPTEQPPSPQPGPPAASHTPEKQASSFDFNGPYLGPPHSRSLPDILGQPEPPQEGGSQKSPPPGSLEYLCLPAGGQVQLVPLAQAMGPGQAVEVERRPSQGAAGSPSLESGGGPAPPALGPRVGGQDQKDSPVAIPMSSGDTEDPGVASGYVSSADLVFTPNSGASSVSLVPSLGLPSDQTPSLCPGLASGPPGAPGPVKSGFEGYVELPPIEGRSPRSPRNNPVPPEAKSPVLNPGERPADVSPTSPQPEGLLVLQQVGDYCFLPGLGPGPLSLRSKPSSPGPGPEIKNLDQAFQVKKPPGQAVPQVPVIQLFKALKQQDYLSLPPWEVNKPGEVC

B1: 9A2-VR5 (antibody, V domains shown)
VH: EVQLLESGGGLVQPGGSLRLSCAASGFTFSHYHMLWVRQAPGKGLEWVSSIRSSGGFTYYADSVKGRFTISRDNSKNTLYLQMNSLRAEDTAVYYCARFYDSFFDIWGQGTMVTVSS
VL: DIQMTQSPSSVSASVGDRVTITCRASQGIRPFVAWYQQKPGKAPKLLIYAASSLQSGVPSRFSGSGSGTDFTLTISSLQPEDFATYYCQQANSFPITFGQGTRLEIKR
B2: 9A2-VR12 (antibody, V domains shown)
VH: B1 VH
VL: B1 VL with A34S
B3: 9A2-VR8 (antibody, V domains shown)
VH: B1 VH
VL: B1 VL with I29V, V33I, A34S
B4: 9A2-VR16 (antibody, V domains shown)
VH: B1 VH
VL: B1 VL with R30S, P31S, F32W, V33L, Q89G, Q90I, A91P, N92V, S93L, F94G
B5: 9A2-VR19 (antibody, V domains shown)
VH: B1 VH
VL: B1 VL with R30S, P31S, F32W, V33L, Q89G, Q90I, A91P, N92I, S93L, F94G
B6: 9A2-VR9 (antibody, V domains shown)
VH: B1 VH
VL: B1 VL with V33I, A34D
B7: 9A2-VR11 (antibody, V domains shown)
VH: B1 VH
VL: B1 VL with I29V, A34S
B8: 9A2-VR14 (antibody, V domains shown)
VH: B1 VH
VL: B1 VL with R30S, P31S, F32W, V33L, Q89G, Q90K, A91P, N92V, S93F, F94D
B9: 9A2-VR6 (antibody, V domains shown)
VH: B1 VH
VL: B1 VL with I29V, A34N
B10: 9A2-VR13 (antibody, V domains shown)
VH: B1 VH
VL: B1 VL with R30S, P31S, F32W, V33L, Q89G, Q90K, A91P, N92V, S93L, F94D
B11: 9A2-VR24.122 (antibody, V domains shown)
VH: B1 VH with S30P, H31W, H33R, M34V, L35H, A61N, D62S, S63E
VL: B1 VL with R30S, P31S, F32W, V33L
B12: 9A2-VR24.97 (antibody, V domains shown)
VH: B1 VH with S30P, H31W, H33R, M34V, L35H, T58P, A61S, D62L
VL: B1 VL with R30S, P31S, F32W, V33L
B13: 9A2-VR24.111 (antibody, V domains shown)
VH: B1 VH with S30P, H31W, H33R, M34V, L35H, T58P, Y59M, A61N, D62P, S63H
VL: B1 VL with R30S, P31S, F32W, V33L
B14: 9A2-VR39.02 (antibody, V domains shown)
VH: B1 VH with S30Y, H31W, L35I, R52N, S53G, S54R, G56R, F57V
VL: B1 VL with R30S, P31S, F32W, V33L
B15: 9A2-VR39.04 (antibody, V domains shown)
VH: EVQLLESGGGLVQPGGSLRLSCAASGFTFNWFQHIWVRQAPGKGLEWVSSINGRGRVTYYADSVKGRFTISRDNSKNTLYLQMNSLRAEDTAVYYCARFYDSFFDIWGQGTMVTVSS
VL: B1 VL with R30S, P31S, F32W, V33L
B16: 9A2-VR24.131 (antibody, V domains shown)
VH: B1 VH with S30P, H31W, H33R, M34V, L35H, A61N, D62P, K65M
VL: B1 VL with R30S, P31S, F32W, V33L
B17: 9A2-VR24.107 (antibody, V domains shown)
VH: B1 VH with S30P, H31W, H33R, M34V, L35H, T58P, A61N, D62P, S63F
VL: B1 VL with R30S, P31S, F32W, V33L
B18: 9A2-VR39.17 (antibody, V domains shown)
VH: B15 VH with N30P, W31F, F32Y, Q33H, H34K, I35V
VL: B1 VL with R30S, P31S, F32W, V33L
B19: 9A2-VR39.01 (antibody, V domains shown)
VH: B15 VH with N30F, Q33H, I35V
VL: B1 VL with R30S, P31S, F32W, V33L
B20: 9A2-VR39.19 (antibody, V domains shown)
VH: B15 VH with N30Q, W31Y, Q33N, H34V
VL: B1 VL with R30S, P31S, F32W, V33L
B21: 9A2-VR24.110 (antibody, V domains shown)
VH: B1 VH with S30P, H31W, H33R, M34V, L35H, T58P, A61N, D62N, S63H
VL: B1 VL with R30S, P31S, F32W, V33L
B22: 9A2-VR39.06 (antibody, V domains shown)
VH: B15 VH with N30Q, F32Y, Q33H, H34Y
VL: B1 VL with R30S, P31S, F32W, V33L
B23: 9A2-VR39.18 (antibody, V domains shown)
VH: B15 VH with N30P, W31G, F32Y, Q33V, H34W
VL: B1 VL with R30S, P31S, F32W, V33L
B24: 9A2-VR39.21 (antibody, V domains shown)
VH: B15 VH with N30Q, W31H, F32Y, Q33H, H34T, I35V
VL: B1 VL with R30S, P31S, F32W, V33L
B25: 9A2-VR24.57 (antibody, V domains shown)
VH: B1 VH with S30P, H31W, H33R, M34V, L35H, A61N, D62P, S63K, G66H
VL: B1 VL with R30S, P31S, F32W, V33L
B26: 9A2-VR24.102 (antibody, V domains shown)
VH: B1 VH with S30P, H31W, H33R, M34V, L35H, T58P, Y59F, A61N, D62S
VL: B1 VL with R30S, P31S, F32W, V33L
B27: 9A2-VR39.16 (antibody, V domains shown)
VH: B15 VH with N30Q, Q33N, H34I, I35V
VL: B1 VL with R30S, P31S, F32W, V33L
B28: 9A2-VR24.56 (antibody, V domains shown)
VH: B1 VH with S30P, H31W, H33R, M34V, L35H, A61N, D62P, S63A, K65R
VL: B1 VL with R30S, P31S, F32W, V33L
B29: 9A2-VR24.44 (antibody, V domains shown)
VH: B1 VH with S30P, H31W, H33R, M34V, L35H, T58P, A61H, D62P
VL: B1 VL with R30S, P31S, F32W, V33L
B30: 9A2-VR39.12 (antibody, V domains shown)
VH: B15 VH with N30F, Q33N, H34T, I35V
VL: B1 VL with R30S, P31S, F32W, V33L
B31: 9A2-VR39.11 (antibody, V domains shown)
VH: B15 VH with N30Q, W31E, Q33H, H34T
VL: B1 VL with R30S, P31S, F32W, V33L
B32: 9A2-VR24.124 (antibody, V domains shown)
VH: B1 VH with S30P, H31W, H33R, M34V, L35H, A61T, D62P, K65R
VL: B1 VL with R30S, P31S, F32W, V33L
B33: 9A2-VR24.27 (antibody, V domains shown)
VH: B1 VH with S30P, H31W, H33R, M34V, L35H, T58P, A61H, D62Q, S63K
VL: B1 VL with R30S, P31S, F32W, V33L
B34: 9A2-VR24.55 (antibody, V domains shown)
VH: B1 VH with S30P, H31W, H33R, M34V, L35H, A61N, D62P, G66N
VL: B1 VL with R30S, P31S, F32W, V33L
B35: 9A2-VR39.05 (antibody, V domains shown)
VH: B15 VH with N30P, Q33H, H34T, I35V
VL: B1 VL with R30S, P31S, F32W, V33L
B36: 9A2-VR24.30 (antibody, V domains shown)
VH: B1 VH with S30P, H31W, H33R, M34V, L35H, T58P, A61N, D62R, S63R
VL: B1 VL with R30S, P31S, F32W, V33L
B37: 9A2-VR24.33 (antibody, V domains shown)
VH: B1 VH with S30P, H31W, H33R, M34V, L35H, T58P, A61N, D62H, S63K
VL: B1 VL with R30S, P31S, F32W, V33L
B38: 9A2-VR24.98 (antibody, V domains shown)
VH: B1 VH with S30P, H31W, H33R, M34V, L35H, T58P, Y59H, A61N, D62S, S63V
VL: B1 VL with R30S, P31S, F32W, V33L

Target: T1, human CD131
Experiment: cell-based or functional assay

IC50 GM-CSF, TF-1 proliferation [nM]	Binder
87	B1
198	B2
57.7	B3
> 1000	B4
> 1000	B5
72.7	B6
353	B7
> 1000	B8
250	B9
> 1000	B10

Target: T1, human CD131
Experiment: cell-based or functional assay
Remark: another data set of the same source

IC50 GM-CSF, TF-1 proliferation [nM]	Binder
0.66	B11
0.16	B12
0.42	B13
0.46	B14
30.4	B15
1.06	B16
0.3	B17
0.67	B18
0.51	B19
7.26	B20
0.24	B21
1.85	B22
> 1000	B23
0.96	B24
0.33	B25
0.32	B26
6.07	B27
0.48	B28
0.4	B29
25.1	B30
18.6	B31
0.54	B32
0.25	B33
0.6	B34
0.96	B35
0.25	B36
0.34	B37
0.25	B38
